B1: LINE1-full (parent)
chain: UACGUAGGUGGUUUUCCCCUGAUAGUGCUAAGGGGGCCUGGAAGUUUGGACUGGGCAGAGCUCAACACAGCGUGGCAAAGUGGCUGUGGCUAGACUGCCUCUCUGGAUUCCUCGUCACUCAGCAGGGCAUCUCUGAGAGAAAUGCC

Variants of: B1
Assay: self-cleavage, relative activity (ratio to wild type); higher = more cleavage; in vitro, sequencing; the parent is a self-cleaving ribozyme

Row | Variant | self-cleavage
1 | U52C A64C | 0.51
2 | G53A U91C | 0.53
3 | C56A U96A | 0.03
4 | U52G U132C | 1.42
5 | A57C A65G | 0
6 | G54A C116A | 0.47
7 | U52A A92G | 0.11
8 | G55A U102C | 0.17
9 | U52C C113U | 0.99
10 | U52G U87C | 0.69
11 | A57C A67U | 0.14
12 | G53A U85C | 0.2
13 | G53A U85A | 0.14
14 | U52C U115C | 1.64
15 | U52A C131U | 1.46
16 | G53A C103A | 1.43
17 | U52A G127A | 1.63
18 | U52C C111A | 1.14
19 | U52A A138G | 1.57
20 | U52A A79G | 1.09
21 | G54A A94G | 0.15
22 | G54A U85C | 0.03
23 | G53A G88A | 0.07
24 | G53A U130A | 1.21

Row | Variant | self-cleavage
25 | U52A C99U | 0.64
26 | G55A C110U | 0.53
27 | U52C A138G | 1.48
28 | U52C A138U | 1.5
29 | C51U A57G | 0.17
30 | G55A | 0.19
31 | G55U | 0.19
32 | G55C | 0.08
33 | U52A G144A | 1.44
34 | U52C G58U | 0.04
35 | G55A C131G | 0.35
36 | U52C U108C | 1.68
37 | G53A U62C | 0.05
38 | G53A U73G | 1.05
39 | G53A U73A | 1.88
40 | U52C G125U | 1.15
41 | G54A U108C | 0.89
42 | U52G A67G | 0.64
43 | G53U A94G | 0.2
44 | U52C U73A | 1.21
45 | U52C U73C | 0.54
46 | U52A U108C | 1.66
47 | G54A U119A | 0.55
48 | G53C A64G | 0.22

Row | Variant | self-cleavage
49 | G55A A92G | 0.03
50 | C51A A57G | 0.48
51 | U52A C123U | 1.11
52 | C56U U85G | 0.03
53 | C56U U85C | 0.07
54 | U52C C84U | 0.15
55 | G55A A141G | 0.11
56 | C56U C76U | 0.34
57 | G53C U96C | 0.09
58 | G54A A142G | 0.83
59 | G54A U96C | 0.04
60 | G54A U96A | 0.03
61 | U52G G58A | 0.09
62 | U52G U100A | 0.43
63 | U52A G58A | 0
64 | U52C U87A | 0.08
65 | U52C U87G | 0
66 | U52C A121U | 1.5
67 | U52A U109C | 1.21
68 | U52G U85A | 0.17
69 | G55C A94C | 0
70 | G54A U104C | 0.44
71 | G54A U104A | 0.18
72 | C56U A77U | 0.11

Row | Variant | self-cleavage
73 | G55A G114U | 0.22
74 | U52A A121G | 1.74
75 | C56U U109C | 0.03
76 | G55C A142G | 0.06
77 | U52C A79G | 0.75
78 | G55C A65G | 0.06
79 | G54A A121U | 0.85
80 | C51U A140G | 1.09
81 | C51U U62A | 0.07
82 | U52C A57G | 0.4
83 | U52C A57U | 0.08
84 | C51A A140G | 1.04
85 | G53A U132C | 1.29
86 | U52C G137A | 0.89
87 | U52A G54U | 1.84
88 | C51A C111U | 1.07
89 | U52C A129U | 1.61
90 | C56A U134C | 0.07
91 | C56U A78U | 0.15
92 | C56U A78G | 0.06
93 | G53A A117G | 2.04
94 | G55A U108C | 0.52
95 | C56U A59G | 0.05
96 | U52G A64G | 0.32

Row | Variant | self-cleavage
97 | U52G A64U | 0.7
98 | U52C A136U | 0.81
99 | U52C A136G | 2.9
100 | G53U U91C | 0.54
101 | C51A A107U | 1.3
102 | G53A A136U | 1.47
103 | G54A A140G | 0.73
104 | U52G A141G | 1.72
105 | U52C G144A | 1.73
106 | G54A U73C | 0.67
107 | U52A A94U | 0.52
108 | U52A A94G | 0.33
109 | U52A U85G | 0.22
110 | U52A U85A | 0.1
111 | U52C G72U | 0.41
112 | C51U G89U | 0.03
113 | C51U C131A | 1.23
114 | U52C C98G | 0.17
115 | G53U A69U | 0.01
116 | U52C U132G | 1.93
117 | U52C U132A | 1.88
118 | A57C A107U | 0.07
119 | G53A U143C | 1.59
120 | U52C A124G | 0.48

Row | Variant | self-cleavage
121 | U52C A124U | 1.48
122 | C56A U130G | 0.03
123 | U52A U81A | 1.49
124 | G55U U134G | 0.15
125 | G55C G72A | 0.08
126 | U52C U100A | 0.63
127 | U52C U100C | 2.25
128 | U52G G72A | 0
129 | G54A U81A | 0.78
130 | C51A G53A | 1.92
131 | G54A A69C | 0.04
132 | C51U A124U | 2.12
133 | G55A U109C | 0.1
134 | U52C U112A | 0.99
135 | C56A G106A | 0.08
136 | U52C A78G | 1
137 | U52C U143C | 1.67
138 | U52C U143G | 1.6
139 | C56U U73C | 0.25
140 | C56U U73A | 0.08
141 | U52C G106U | 0.8
142 | C56G A129C | 0.08
143 | U52C U134A | 1.07
144 | C56U U130C | 0

Row | Variant | self-cleavage
145 | A57C A129G | 0.14
146 | G55A A64G | 0
147 | C51U A129U | 1.63
148 | U52G U91C | 1.23
149 | G55C C146U | 0.25
150 | U52C C146U | 2.19
151 | G55A A79G | 0.4
152 | U52G U112C | 0.99
153 | U52G U112A | 0.56
154 | G54A G72A | 0.45
155 | U52C G74U | 1.79
156 | U52G A124G | 1.57
157 | U52G A140G | 1.81
158 | C56A C120U | 0.17
159 | U52C G80A | 1.82
160 | G55C U87C | 0.37
161 | G54C U104C | 1.3
162 | G54A G125U | 0.69
163 | C51A U109C | 1.35
164 | G54U A129G | 1.02
165 | G53A U96C | 0
166 | U52A G137A | 0.99
167 | U52A G137U | 1.06

Source: the RNAGym collection of RNA variant scans (doi:10.7554/elife.90254)
